Test results: FireProtDB
“And” between values parts separate entries of the source, which are not always exact repeats. Equal values may be shown once.

[1] = Escherichia coli (strain K12), pH 7, 30 °C, Urea, CD, Potassium phosphate 10 mM
[2] = Escherichia coli (strain K12), pH 7.5, Thermal, CD, Potassium phosphate 10 mM, reversible: yes, structure 1EZA
[3] = Escherichia coli (strain K12), pH 7.5, Thermal, DSC, Potassium phosphate 10 mM, reversible: yes, structure 1EZA
[4] = Bos taurus, pH 8, Thermal, DSC, Tris-HCl 10 mM, NaCl 200 mM, reversible: yes

Chain of Superoxide dismutase [Cu-Zn] wild type, P00442 (P00442 whole entry): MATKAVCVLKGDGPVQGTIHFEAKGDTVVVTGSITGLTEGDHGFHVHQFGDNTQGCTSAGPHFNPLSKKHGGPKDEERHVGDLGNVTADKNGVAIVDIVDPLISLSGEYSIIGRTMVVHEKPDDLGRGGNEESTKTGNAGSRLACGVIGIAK
Chain of Tropomyosin alpha-1 chain wild type, P04268 (P04268 whole entry): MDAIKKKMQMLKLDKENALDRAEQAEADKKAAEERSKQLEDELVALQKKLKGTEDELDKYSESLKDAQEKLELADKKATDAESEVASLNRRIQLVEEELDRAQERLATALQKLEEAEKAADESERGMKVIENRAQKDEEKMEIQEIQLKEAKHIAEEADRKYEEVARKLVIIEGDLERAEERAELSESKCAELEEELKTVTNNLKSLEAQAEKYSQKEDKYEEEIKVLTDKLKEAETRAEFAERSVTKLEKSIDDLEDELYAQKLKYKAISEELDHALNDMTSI

Phosphocarrier protein HPr wild type, P0AA04
denaturant m value [1]: 1.06 kcal/mol/M
denaturant midpoint (higher = more stable) [1]: 4.34 M
unfolding free energy (Escherichia coli (strain K12), pH 7, 30 °C, Urea, CD, Potassium phosphate 50 mM, reversible: yes): 4.95 kcal/mol
Tm (Escherichia coli (strain K12), pH 7, Thermal, CD, Potassium phosphate 10 mM): 30 °C

Phosphoenolpyruvate-protein phosphotransferase H189A, P08839
Tm [2]: 54 °C
unfolding enthalpy (van 't Hoff) [2]: 118 kcal/mol
Tm [3]: 55.8 °C
unfolding enthalpy (calorimetric) [3]: 143 kcal/mol

Phosphoenolpyruvate-protein phosphotransferase H189E, P08839
Tm [2]: 52.1 °C
unfolding enthalpy (van 't Hoff) [2]: 128 kcal/mol
Tm [3]: 53.7 °C
unfolding enthalpy (calorimetric) [3]: 135 kcal/mol

QQHADPICNKPCKTHDDCSGAWFCQACWNSARTCGPYVG [Metallocarboxypeptidase inhibitor wild type]
denaturant midpoint (higher = more stable) (Solanum tuberosum, pH 8.4, 23 °C, GdnHCl, Fluorescence, Tris-HCl 0.1 M, whole UniProt chain shown): 1.45 M
denaturant midpoint (higher = more stable) (Solanum tuberosum, pH 8.4, 23 °C, GdnSCN, Fluorescence, Tris-HCl 0.1 M, whole UniProt chain shown): 0.7 M

Superoxide dismutase [Cu-Zn] wild type, P00442
Tm (Bos taurus, pH 7.8, Thermal, DSC, Potassium phosphate 100 mM, reversible: no (32%)): 88.3 °C
Tm [4]: 59.9 °C
unfolding enthalpy (calorimetric) [4]: 152 kcal/mol

Tropomyosin alpha-1 chain wild type, P04268
unfolding free energy (Gallus gallus, pH 7, 39 °C, Thermal, CD, Sodium phosphate 10 mM, NaCl 0.5 M, reversible: yes): 9 kcal/mol and 12.4 kcal/mol and 9.6 kcal/mol
unfolding enthalpy (van 't Hoff) (Gallus gallus, pH 7, Thermal, CD, Sodium phosphate 10 mM, NaCl 0.5 M, reversible: yes): 162 kcal/mol and 225 kcal/mol and 98 kcal/mol
